Experiments:
Details in all cases: partners not purified
[1] = target: T1, Peptidyl-prolyl cis/trans isomerase NIMA-interacting 1 (PIN1), endogenous human (human (endogenous in human hepatocytes, …, UniProt Q13526 1-163)); assay: co-IP; human normal and end-stage cirrhotic ALD liver lysates; IP with anti-PIN1 or anti-MATα1 antibodies, western blot against MATα1 or PIN1, densitometry
T1 construct: source: endogenous, human hepatocyte lysate, human liver lysates and HepG2 lysate

[2] = target: T2, Peptidyl-prolyl cis/trans isomerase NIMA-interacting 1 (PIN1), endogenous mouse (mouse (endogenous in mouse hepatocytes, …, UniProt Q9QUR7 1-165)); assay: co-IP; AML-12 cell lysates, control or ethanol (100 mM, 48 h); IP with anti-PIN1 or anti-MATα1 antibodies, western blot, densitometry
T2 construct: source: endogenous, mouse hepatocyte lysate, mouse liver whole lysates and cytosolic fractions, AML-12 lysate
T2 sequence (Q9QUR7 whole entry): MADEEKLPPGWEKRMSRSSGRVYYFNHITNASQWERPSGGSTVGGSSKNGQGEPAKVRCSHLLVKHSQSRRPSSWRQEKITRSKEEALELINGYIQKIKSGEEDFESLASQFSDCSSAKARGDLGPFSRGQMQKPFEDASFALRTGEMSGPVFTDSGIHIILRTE

[3] = target: T2, Peptidyl-prolyl cis/trans isomerase …; assay: co-IP; whole liver lysates of pair-fed and ethanol-fed mice (NIAAA model); IP with anti-PIN1 or anti-MATα1 antibodies, western blot against MATα1 or PIN1, densitometry

T1 sequence (Q13526 whole entry): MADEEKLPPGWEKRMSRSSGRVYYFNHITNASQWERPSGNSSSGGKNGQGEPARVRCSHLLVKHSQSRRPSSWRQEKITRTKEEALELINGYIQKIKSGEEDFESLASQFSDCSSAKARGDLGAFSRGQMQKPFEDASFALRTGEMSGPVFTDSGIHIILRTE

Row | Binder | fold of co-precipitated signal, alcoholic cirrhotic livers against normal human livers [1] | fold of co-precipitated signal, ethanol-treated against control AML-12 cells [2] | fold of co-precipitated signal, ethanol-fed against pair-fed mouse livers [3]
1 | Methionine adenosyltransferase α1 (MATα1), endogenous human (natural protein, Methionine adenosyltransferase α1 (MATα1), human, endogenous in hepatocytes and liver; source: endogenous, human hepatocyte lysate and human liver lysates (normal, ALD)) not shown | 3.3 fold | – | –
2 | Methionine adenosyltransferase α1 (MATα1), endogenous mouse (natural protein, Methionine adenosyltransferase α1 (MATα1), mouse, endogenous; source: endogenous, mouse hepatocyte lysate, mouse liver whole lysates and cytosolic fractions, AML-12 lysate) not shown | – | 3.5 fold | 2 fold
